Reference: patent US20230000974A1

Tested on: T1, fluorogenic substrate (R&D systems, cat no. ES007), peptide YVADAPK between Mca and Dnp groups
T1 sequence: YVADAPK

## commercial ACE-2 from Sino Biological (cat no 10108H08H20)
  enzymatic activity assay using a fluorogenic substrate (fluorescence, excitation 320 nm, emission 405 nm): All four samples appeared to have similar levels of activity
